Source: patent US20090196872A1 (KIRIN BEER, published 2009)

How the values were obtained:
M2LTKGS peptide = M2LTKGS peptide (influenza A virus); test: peptide ELISA, avian flu M2 variants
M2DLTGS peptide = M2DLTGS peptide (influenza A virus); test: peptide ELISA, avian flu M2 variants

B1: human anti-M2 monoclonal antibody no. Z3G1 (recombinant IgG1 type Z3, CHO; ATCC PTA-5967) (antibody, V domains shown)
VH: QVQLVQSGAEVKKPGASVKVSCKASGYTFTSYGISWVRQAPGQGLEWMGWISAYNGNTNYAQKLQGRVTMTTDTSTSTAYMELRSLRSDDTAVYYCARAAAGGYFQHWGQGTLVTVSS
VL: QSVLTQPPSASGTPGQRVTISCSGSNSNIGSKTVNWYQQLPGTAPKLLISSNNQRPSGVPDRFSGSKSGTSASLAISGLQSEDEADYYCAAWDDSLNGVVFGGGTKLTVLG
binding result (M2LTKGS peptide): binds
binding result (M2DLTGS peptide): binds
